Abundance fitness data for 167 variants are collected here from the Human Domainome abundance scans (Beltran et al. 2025).

First the molecules themselves.
B1: Connector enhancer of kinase suppressor of ras 2, residues 9 to 71; numbered along this chain, Q8WXI2 (parent)
chain: SKWSPSQVVDWMKGLDDCLQQYIKNFEREKISGDQLLRITHQELEDLGVSRIGHQELILEAVD

± gives the uncertainty stated by the source.

The variants in the data set derive from B1. Description: abundance fitness (aPCA) (normalised: wild type 0, dead -1); higher = more abundant; growth selection in yeast, the domain comes from the species named. The following applies: Homo sapiens.
F26R: the abundance fitness is -0.867 ± 0.039.
The result for F26G reads -0.727 ± 0.035.
In the case of F26I, the abundance fitness is -0.356 ± 0.12.
Consider F26P, for which the abundance fitness is -0.592 ± 0.063.
The result for F26K reads -0.852 ± 0.027; that for F26W, -0.785 ± 0.052.
For F26V the value was -0.485 ± 0.027; for F26A, -0.824 ± 0.041.
As for F26M, the abundance fitness is -0.709 ± 0.062.
For F26H the value was -0.929 ± 0.081; for F26Q, -0.772 ± 0.05.
For F26N, the abundance fitness was -0.893 ± 0.13.
In the case of K13T, the abundance fitness is -0.237 ± 0.046.
The result for K13H reads -0.13 ± 0.065.
As to K13S, the abundance fitness was -0.179 ± 0.027.
The result for K13M reads -0.103 ± 0.029.
With K13F, the abundance fitness was -0.375 ± 0.045.
The result for K13C reads -0.356 ± 0.041.
K13N: the abundance fitness was -0.212 ± 0.055.
For K13P the value was -0.895 ± 0.075.
Turning to K13L, the abundance fitness is -0.23 ± 0.024.
The result for K13R reads -0.003 ± 0.028; that for K13A, -0.196 ± 0.03.
In the case of K13V, the abundance fitness was -0.391 ± 0.026.
With K13I, the abundance fitness was -0.422 ± 0.052.
For K13W the value was -0.339 ± 0.034; for K13E, -0.352 ± 0.046; for K13Y, -0.242 ± 0.056.
For L15H the value was -0.781 ± 0.067; for L15A, -0.652 ± 0.034.
For L15V, the abundance fitness was -0.42 ± 0.027.
The result for L15R reads -0.535 ± 0.037; that for L15C, -0.552 ± 0.059.
Take L15P: the abundance fitness is -0.712 ± 0.043.
With L15T, the abundance fitness is -0.427 ± 0.032.
L15E: the abundance fitness was -0.371 ± 0.027.
The result for L15N reads -0.512 ± 0.051; that for L15D, -0.702 ± 0.05; that for L15S, -0.539 ± 0.031.
Take L15K: the abundance fitness was -0.48 ± 0.032.
For L15Q the value was -0.164 ± 0.035.
With L15W, the abundance fitness was -0.266 ± 0.04.
For L15Y, the abundance fitness was -0.636 ± 0.067.
The result for L15G reads -0.675 ± 0.044; that for L15I, -0.446 ± 0.046; that for C18R, -0.314 ± 0.032.
C18G: the abundance fitness was -0.182 ± 0.026.
Regarding C18W, the abundance fitness is -0.991 ± 0.069.
For C18S the value was -0.024 ± 0.022; for C18F, -0.823 ± 0.077.
The result for C18Q reads -0.124 ± 0.039.
For C18I the value was -0.439 ± 0.061; for C18M, -0.442 ± 0.042.
For C18K, the abundance fitness was -0.301 ± 0.047.
The result for C18L reads -0.885 ± 0.049; that for C18T, -0.221 ± 0.04; that for C18D, 0.006 ± 0.043.
The result for C18N reads -0.132 ± 0.045; that for C18V, -0.118 ± 0.024.
The result for C18Y reads -0.877 ± 0.061; that for C18P, -0.239 ± 0.033.
For N25W, the abundance fitness was -0.443 ± 0.03.
The result for N25P reads -0.307 ± 0.033; that for N25S, -0.05 ± 0.028.
The result for N25G reads -0.139 ± 0.03; that for N25C, -0.066 ± 0.03.
For N25L the value was -0.089 ± 0.026; for N25Q, -0.133 ± 0.033; for N25D, -0.08 ± 0.047.
N25K: the abundance fitness was -0.258 ± 0.039.
With N25E, the abundance fitness was -0.168 ± 0.037.
On to N25I, for which the abundance fitness is -0.088 ± 0.083.
On to N25A, for which the abundance fitness was -0.007 ± 0.033.
In the case of N25M, the abundance fitness is -0.014 ± 0.045.
Turning to N25H, the abundance fitness is -0.055 ± 0.046.
For N25Y the value was -0.036 ± 0.084.
The result for N25F reads -0.078 ± 0.048.
Regarding L19T, the abundance fitness is -0.508 ± 0.036.
The result for L19V reads -0.112 ± 0.026; that for L19I, -0.102 ± 0.066.
Turning to L19G, the abundance fitness was -0.68 ± 0.027.
Take L19A: the abundance fitness is -0.652 ± 0.033.
The result for L19E reads -0.74 ± 0.049; that for L19S, -0.642 ± 0.037.
The result for L19R reads -0.763 ± 0.036; that for L19N, -0.593 ± 0.054.
For L19C the value was -0.244 ± 0.034; for L19Y, -0.816 ± 0.085; for L19F, -0.548 ± 0.052.
Turning to L19P, the abundance fitness is -0.602 ± 0.044.
For L19D, the abundance fitness was -0.608 ± 0.042.
Take L19H: the abundance fitness is -0.568 ± 0.061.
As for L19M, the abundance fitness was -0.2 ± 0.044.
Regarding L19Q, the abundance fitness was -0.604 ± 0.047.
The result for L19W reads -0.936 ± 0.06.
The result for R28F reads -0.453 ± 0.1.
The result for R28V reads -0.159 ± 0.031.
As to R28M, the abundance fitness is -0.094 ± 0.03.
With R28K, the abundance fitness is -0.063 ± 0.033.
In the case of R28E, the abundance fitness is -0.1 ± 0.043.
For the variant R28N, the abundance fitness was -0.067 ± 0.051.
The result for R28G reads -0.262 ± 0.031; that for R28I, -0.099 ± 0.063; that for R28D, -0.043 ± 0.052.
For R28W the value was -0.638 ± 0.044; for R28L, -0.15 ± 0.023; for R28T, -0.058 ± 0.032.
Take R28S: the abundance fitness was -0.056 ± 0.026.
The result for R28Y reads -0.28 ± 0.069; that for R28A, -0.052 ± 0.026; that for E27A, -0.075 ± 0.029.
For E27G the value was -0.514 ± 0.026; for E27T, -0.197 ± 0.033.
For E27D the value was -0.248 ± 0.041; for E27L, -0.207 ± 0.03; for E27C, -0.406 ± 0.038.
With E27P, the abundance fitness was -0.703 ± 0.065.
For E27V, the abundance fitness was -0.261 ± 0.027.
For E27H, the abundance fitness is -0.376 ± 0.054.
In the case of E27Q, the abundance fitness is -0.101 ± 0.038.
Consider E27N, for which the abundance fitness is -0.535 ± 0.047.
For E27R, the abundance fitness was -0.173 ± 0.023.
For E27I the value was -0.436 ± 0.17.
Consider E27M, for which the abundance fitness was -0.205 ± 0.058.
For E27W the value was -0.311 ± 0.034; for E27Y, -0.316 ± 0.079; for E27F, -0.47 ± 0.16.
As for E27S, the abundance fitness is -0.258 ± 0.03.
As to V8P, the abundance fitness was -0.773 ± 0.052.
For V8Q, the abundance fitness is -0.947 ± 0.092.
For V8M the value was -0.771 ± 0.058; for V8R, -0.872 ± 0.06.
The result for V8S reads -0.749 ± 0.04.
For V8N, the abundance fitness was -0.973 ± 0.069.
The result for V8T reads -0.523 ± 0.033; that for V8Y, -1.01 ± 0.086; that for V8W, -1.05 ± 0.083.
Turning to E29K, the abundance fitness came out at 0.02 ± 0.05.
The result for E29Q reads -0.005 ± 0.035.
The result for E29R reads -0.025 ± 0.023.
For E29G the value was -0.04 ± 0.029; for E29N, -0.143 ± 0.057.
As for E29S, the abundance fitness was -0.043 ± 0.033.
For E29F the value was -0.148 ± 0.036; for E29H, 0.003 ± 0.044.
For E29M the value was -0.054 ± 0.041; for E29T, -0.139 ± 0.037; for E29W, -0.215 ± 0.03.
The result for E29L reads -0.179 ± 0.024.
Regarding V9F, the abundance fitness was -0.764 ± 0.081.
The result for V9D reads -0.66 ± 0.052; that for V9T, -0.11 ± 0.035.
For V9H the value was -0.774 ± 0.051.
For V9K the value was -0.334 ± 0.044; for V9W, -0.863 ± 0.049.
Turning to V9M, the abundance fitness was -0.159 ± 0.038.
Turning to V9R, the abundance fitness was -0.268 ± 0.025.
Take V9C: the abundance fitness was -0.054 ± 0.039.
The result for V9E reads -0.374 ± 0.036.
The result for V9Q reads -0.217 ± 0.044; that for V9N, -0.562 ± 0.061.
For V9G the value was -0.128 ± 0.031; for V9Y, -0.757 ± 0.076; for V9I, -0.035 ± 0.03.
For V9A, the abundance fitness is -0.064 ± 0.028.
For V9P, the abundance fitness was -0.888 ± 0.073.
V9S: the abundance fitness is -0.207 ± 0.027.
